{
  "source": "patent US20180140673A1",
  "molecular_target": "FGF receptor/BKL complex on HEK293 cells overexpressing human beta-klotho (BKL) (human) (UniProt Q86Z14)",
  "sequence (Q86Z14 whole entry, one chain of several)": "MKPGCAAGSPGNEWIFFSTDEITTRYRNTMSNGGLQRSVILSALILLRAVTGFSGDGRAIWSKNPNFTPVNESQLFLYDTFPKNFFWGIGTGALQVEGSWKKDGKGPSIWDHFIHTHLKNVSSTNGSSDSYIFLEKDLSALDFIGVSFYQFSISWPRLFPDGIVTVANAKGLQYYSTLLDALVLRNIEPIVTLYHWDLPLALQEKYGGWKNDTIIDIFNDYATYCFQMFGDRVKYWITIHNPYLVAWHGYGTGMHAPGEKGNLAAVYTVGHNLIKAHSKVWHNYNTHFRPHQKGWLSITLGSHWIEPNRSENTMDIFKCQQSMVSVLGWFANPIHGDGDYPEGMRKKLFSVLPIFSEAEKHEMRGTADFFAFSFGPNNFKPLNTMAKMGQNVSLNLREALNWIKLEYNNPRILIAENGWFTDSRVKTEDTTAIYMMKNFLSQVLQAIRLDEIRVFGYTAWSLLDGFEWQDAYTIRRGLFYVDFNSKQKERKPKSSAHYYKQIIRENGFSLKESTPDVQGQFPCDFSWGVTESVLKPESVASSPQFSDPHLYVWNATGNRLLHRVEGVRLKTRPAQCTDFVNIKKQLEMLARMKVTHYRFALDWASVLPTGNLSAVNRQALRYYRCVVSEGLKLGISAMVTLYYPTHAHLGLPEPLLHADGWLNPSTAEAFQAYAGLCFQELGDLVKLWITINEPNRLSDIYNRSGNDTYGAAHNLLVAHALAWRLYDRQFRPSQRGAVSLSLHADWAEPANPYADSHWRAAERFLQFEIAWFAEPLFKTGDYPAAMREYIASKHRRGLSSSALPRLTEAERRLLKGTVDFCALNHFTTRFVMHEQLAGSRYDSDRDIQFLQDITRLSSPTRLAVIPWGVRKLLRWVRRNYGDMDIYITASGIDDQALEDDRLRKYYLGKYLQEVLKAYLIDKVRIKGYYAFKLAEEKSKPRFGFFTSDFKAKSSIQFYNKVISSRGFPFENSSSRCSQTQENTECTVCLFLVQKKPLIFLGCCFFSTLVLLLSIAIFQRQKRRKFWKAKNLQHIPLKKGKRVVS",
  "assay": "cell-based or functional assay",
  "data": [
    {"substance": "S{Beta-176}-[2-[2-[[2-[2-[2-[[2-[2-[2-[[(4S)-4-carboxy-4-(15-carboxypentadecanoyl-amino)butanoyl]amino]ethoxy]ethoxy]acetyl]amino]ethoxy]ethoxy]acetyl]amino]-ethylamino]-2-oxoethyl]-Ala[Gln121,Leu168,Cys176]FGF21 (from UniProt Q9NSA1 29-209) (ligand)", "values": [
      {"measurement": "EC50 (0.1% HSA) (nM), pERK, HEK293/BKL cells", "result": 373, "unit": "nM"},
      {"measurement": "EC50 (nM), pERK, HEK293/BKL cells", "result": 214, "unit": "nM"}
    ]},
    {"substance": "Ala[Gln121,Leu168,Cys174]FGF21 (from UniProt Q9NSA1 29-209) (ligand)", "values": [
      {"measurement": "EC50 (nM), pERK, HEK293/BKL cells", "result": 5, "unit": "nM"}
    ]},
    {"substance": "Ala[Gln121,Leu168,Cys169]FGF21 (from UniProt Q9NSA1 29-209) (ligand)", "values": [
      {"measurement": "EC50 (nM), pERK, HEK293/BKL cells", "result": 22, "unit": "nM"}
    ]},
    {"substance": "Ala[Gln121,Leu168,Cys170]FGF21 (from UniProt Q9NSA1 29-209) (ligand)", "values": [
      {"measurement": "EC50 (nM), pERK, HEK293/BKL cells", "result": 7, "unit": "nM"}
    ]},
    {"substance": "12-[[4-[[(1S)-4-[2-[2-[2-[2-[2-[2-(2-acetamidoethylamino)-2-oxo-ethoxy]ethoxy]ethylamino]-2-oxo-ethoxy]ethoxy]ethylamino]-1-carboxy-4-oxo-butyl]carbamoyl]cyclohexyl]methylamino]-12-oxo-dodecanoic acid-Ala[Gln121,Leu168,Cys180]FGF21 (from UniProt Q9NSA1 29-209) (ligand)", "values": [
      {"measurement": "EC50 (0.1% HSA) (nM), pERK, HEK293/BKL cells", "result": 4.7, "unit": "nM"},
      {"measurement": "EC50 (nM), pERK, HEK293/BKL cells", "result": 4, "unit": "nM"}
    ]},
    {"substance": "16-[[(1S)-4-[2-[2-[2-[2-[2-[2-(2-acetamidoethylamino)-2-oxo-ethoxy]ethoxy]ethylamino]-2-oxo-ethoxy]ethoxy]ethylamino]-1-carboxy-4-oxo-butyl]amino]-16-oxo-hexadecanoic acid-Ala[Gln121,Leu168,Cys174]FGF21 (from UniProt Q9NSA1 29-209) (ligand)", "values": [
      {"measurement": "EC50 (0.1% HSA) (nM), pERK, HEK293/BKL cells", "result": 4, "unit": "nM"},
      {"measurement": "EC50 (nM), pERK, HEK293/BKL cells", "result": 2, "unit": "nM"}
    ]},
    {"substance": "18-[[(1S)-4-[2-[2-[2-[2-[2-[2-(2-acetamidoethylamino)-2-oxo-ethoxy]ethoxy]ethylamino]-2-oxo-ethoxy]ethoxy]ethylamino]-1-carboxy-4-oxo-butyl]amino]-18-oxo-octadecanoic acid-Ala[Gln121,Leu168,Cys170]FGF21 (from UniProt Q9NSA1 29-209) (ligand)", "values": [
      {"measurement": "EC50 (0.1% HSA) (nM), pERK, HEK293/BKL cells", "result": 20, "unit": "nM"},
      {"measurement": "EC50 (nM), pERK, HEK293/BKL cells", "result": 1, "unit": "nM"}
    ]},
    {"substance": "4-[10-[[4-[2-[2-[2-[2-[2-[2-[[(1S)-5-acetamido-1-carboxy-pentyl]amino]-2-oxo-ethoxy]ethoxy]ethylamino]-2-oxo-ethoxy]ethoxy]ethylamino]-4-oxo-butyl]sulfonylamino]-10-oxo-decoxy]benzoic acid]-Ala[Gln121,Leu168,Cys180]FGF21 (from UniProt Q9NSA1 29-209) (ligand)", "values": [
      {"measurement": "EC50 (0.1% HSA) (nM), pERK, HEK293/BKL cells", "result": 4, "unit": "nM"},
      {"measurement": "EC50 (nM), pERK, HEK293/BKL cells", "result": 3.2, "unit": "nM"}
    ]},
    {"substance": "4-[10-[[(1S)-4-[2-[2-[2-[2-[2-[2-[[(1S)-5-acetamido-1-carboxy-pentyl]amino]-2-oxo-ethoxy]ethoxy]ethylamino]-2-oxo-ethoxy]ethoxy]ethylamino]-1-carboxy-4-oxo-butyl]amino]-10-oxo-decoxy]benzoic acid]-Ala[Gln121,Leu168,Cys181]FGF21 (from UniProt Q9NSA1 29-208) (ligand)", "values": [
      {"measurement": "EC50 (0.1% HSA) (nM), pERK, HEK293/BKL cells", "result": 138, "unit": "nM"},
      {"measurement": "EC50 (nM), pERK, HEK293/BKL cells", "result": 26.4, "unit": "nM"}
    ]},
    {"substance": "S{Beta-169}-[2-[2-[[2-[2-[2-[[2-[2-[2-[[(4S)-4-carboxy-4-(15-carboxypentadecanoyl-amino)butanoyl]amino]ethoxy]ethoxy]acetyl]amino]ethoxy]ethoxy]acetyl]amino]-ethylamino]-2-oxoethyl]-Ala[Gln121,Leu168,Cys169]FGF21 (from UniProt Q9NSA1 29-209) (ligand)", "values": [
      {"measurement": "EC50 (0.1% HSA) (nM), pERK, HEK293/BKL cells", "result": 20, "unit": "nM"},
      {"measurement": "EC50 (nM), pERK, HEK293/BKL cells", "result": 25, "unit": "nM"}
    ]},
    {"substance": "S{Beta-174}-[2-[2-[[2-[2-[2-[[2-[2-[2-[[(4S)-4-carboxy-4-(13-carboxytridecanoyl-amino)butanoyl]amino]ethoxy]ethoxy]acetyl]amino]ethoxy]ethoxy]acetyl]amino]-ethylamino]-2-oxoethyl]-Ala[Gln121,Leu168,Cys174]FGF21 (from UniProt Q9NSA1 29-209) (ligand)", "values": [
      {"measurement": "EC50 (0.1% HSA) (nM), pERK, HEK293/BKL cells", "result": 4, "unit": "nM"},
      {"measurement": "EC50 (nM), pERK, HEK293/BKL cells", "result": 4, "unit": "nM"}
    ]},
    {"substance": "4-[10-[[(1S)-4-[2-[2-[2-[2-[2-[2-[[(1S)-5-acetamido-1-carboxy-pentyl]amino]-2-oxo-ethoxy]ethoxy]ethylamino]-2-oxo-ethoxy]ethoxy]ethylamino]-1-carboxy-4-oxo-butyl]amino]-10-oxo-decoxy]benzoic acid]-Ala[Gln121,Leu168,Cys180]FGF21 (from UniProt Q9NSA1 29-209) (ligand)", "values": [
      {"measurement": "EC50 (0.1% HSA) (nM), pERK, HEK293/BKL cells", "result": 3, "unit": "nM"},
      {"measurement": "EC50 (nM), pERK, HEK293/BKL cells", "result": 5, "unit": "nM"}
    ]},
    {"substance": "18-[[(1S)-4-[2-[2-[2-[2-[2-[2-(2-acetamidoethylamino)-2-oxo-ethoxy]ethoxy]ethylamino]-2-oxo-ethoxy]ethoxy]ethylamino]-1-carboxy-4-oxo-butyl]amino]-18-oxo-octadecanoic acid-Ala[Gln121,Leu168,Cys174]FGF21 (from UniProt Q9NSA1 29-209) (ligand)", "values": [
      {"measurement": "EC50 (0.1% HSA) (nM), pERK, HEK293/BKL cells", "result": 1, "unit": "nM"},
      {"measurement": "EC50 (nM), pERK, HEK293/BKL cells", "result": 1, "unit": "nM"}
    ]},
    {"substance": "12-[[(1S)-4-[[(1S)-4-[2-[2-[2-[2-[2-[2-[[(1S)-5-acetamido-1-carboxy-pentyl]amino]-2-oxo-ethoxy]ethoxy]ethylamino]-2-oxo-ethoxy]ethoxy]ethylamino]-1-carboxy-4-oxo-butyl]amino]-1-carboxy-4-oxo-butyl]amino]-12-oxo-dodecanoic acid-Ala[Gln121,Leu168,Cys180]FGF21 (from UniProt Q9NSA1 29-209) (ligand)", "values": [
      {"measurement": "EC50 (0.1% HSA) (nM), pERK, HEK293/BKL cells", "result": 6.1, "unit": "nM"},
      {"measurement": "EC50 (nM), pERK, HEK293/BKL cells", "result": 7.9, "unit": "nM"}
    ]},
    {"substance": "S{Beta-168}-[2-[2-[[2-[2-[2-[[2-[2-[2-[[(4S)-4-carboxy-4-(13-carboxytridecanoyl-amino)butanoyl]amino]ethoxy]ethoxy]acetyl]amino]ethoxy]ethoxy]acetyl]amino]-ethylamino]-2-oxoethyl]-Ala[Gln121,Cys168]FGF21 (from UniProt Q9NSA1 29-209) (ligand)", "values": [
      {"measurement": "EC50 (0.1% HSA) (nM), pERK, HEK293/BKL cells", "result": 4260, "unit": "nM"},
      {"measurement": "EC50 (nM), pERK, HEK293/BKL cells", "result": 667, "unit": "nM"}
    ]},
    {"substance": "16-[[4-[[(1S)-4-[2-[2-[2-[2-[2-[2-[[(1S)-5-[(2-acetamido]-1-carboxy-pentyl]amino]-2-oxo-ethoxy]ethoxy]ethylamino]-2-oxo-ethoxy]ethoxy]ethylamino]-1-carboxy-4-oxo-butyl]carbamoyl]cyclohexyl]methylamino]-16-oxo-hexadecanoic acid-Ala[Gln121,Leu168,Cys180]FGF21 (from UniProt Q9NSA1 29-209) (ligand)", "values": [
      {"measurement": "EC50 (0.1% HSA) (nM), pERK, HEK293/BKL cells", "result": 2.1, "unit": "nM"},
      {"measurement": "EC50 (nM), pERK, HEK293/BKL cells", "result": 4, "unit": "nM"}
    ]},
    {"substance": "4-[10-[[4-[2-[2-[2-[2-[2-[2-[[(1S)-5-acetamido-1-carboxy-pentyl]amino]-2-oxo-ethoxy]ethoxy]ethylamino]-2-oxo-ethoxy]ethoxy]ethylamino]-4-oxo-butyl]sulfonylamino]-10-oxo-decoxy]benzoic acid-Ala[Gln121,Leu168,Cys181]FGF21 (from UniProt Q9NSA1 29-208) (ligand)", "values": [
      {"measurement": "EC50 (0.1% HSA) (nM), pERK, HEK293/BKL cells", "result": 132, "unit": "nM"},
      {"measurement": "EC50 (nM), pERK, HEK293/BKL cells", "result": 24.7, "unit": "nM"}
    ]},
    {"substance": "S{Beta-173}-[2-[2-[[2-[2-[2-[[2-[2-[2-[[(4S)-4-carboxy-4-(15-carboxypentadecanoyl-amino)butanoyl]amino]ethoxy]ethoxy]acetyl]amino]ethoxy]ethoxy]acetyl]amino]-ethylamino]-2-oxoethyl]-Ala[Gln121,Leu168,Cys173]FGF21 (from UniProt Q9NSA1 29-209) (ligand)", "values": [
      {"measurement": "EC50 (0.1% HSA) (nM), pERK, HEK293/BKL cells", "result": 4, "unit": "nM"},
      {"measurement": "EC50 (nM), pERK, HEK293/BKL cells", "result": 3, "unit": "nM"}
    ]},
    {"substance": "Ala[Gln121,Leu168,Cys173]FGF21 (from UniProt Q9NSA1 29-209) (ligand)", "values": [
      {"measurement": "EC50 (nM), pERK, HEK293/BKL cells", "result": 4, "unit": "nM"}
    ]},
    {"substance": "Ala[Gln121,Leu168,Cys175]FGF21 (from UniProt Q9NSA1 29-209) (ligand)", "values": [
      {"measurement": "EC50 (nM), pERK, HEK293/BKL cells", "result": 11, "unit": "nM"}
    ]},
    {"substance": "Ala[Gln121,Cys168]FGF21 (from UniProt Q9NSA1 29-209) (ligand)", "values": [
      {"measurement": "EC50 (nM), pERK, HEK293/BKL cells", "result": 492, "unit": "nM"}
    ]},
    {"substance": "16-[[4-[[(1S)-4-[2-[2-[2-[2-[2-[2-(2-acetamidoethylamino)-2-oxo-ethoxy]ethoxy]ethylamino]-2-oxo-ethoxy]ethoxy]ethylamino]-1-carboxy-4-oxo-butyl]carbamoyl]cyclohexyl]methylamino]-16-oxo-hexadecanoic acid-Ala[Gln121,Leu168,Cys180]FGF21 (from UniProt Q9NSA1 29-209) (ligand)", "values": [
      {"measurement": "EC50 (0.1% HSA) (nM), pERK, HEK293/BKL cells", "result": 3.2, "unit": "nM"},
      {"measurement": "EC50 (nM), pERK, HEK293/BKL cells", "result": 3.5, "unit": "nM"}
    ]},
    {"substance": "(2S)-6-acetamido-2-[[2-[2-[2-[[2-[2-[2-[[(4S)-4-carboxy-4-(16-sulfohexadecanoylamino)butanoyl]amino]ethoxy]ethoxy]acetyl]amino]ethoxy]ethoxy]acetyl]amino]hexadecanoic acid-Ala[Gln121,Leu168,Cys180]FGF21 (from UniProt Q9NSA1 29-209) (ligand)", "values": [
      {"measurement": "EC50 (0.1% HSA) (nM), pERK, HEK293/BKL cells", "result": 7.1, "unit": "nM"},
      {"measurement": "EC50 (nM), pERK, HEK293/BKL cells", "result": 4.2, "unit": "nM"}
    ]},
    {"substance": "20-[[(1S)-4-[[(1S)-4-[2-[2-[2-[2-[2-[2-[[(1S)-5-acetamido-1-carboxy-pentyl]amino]-2-oxo-ethoxy]ethoxy]ethylamino]-2-oxo-ethoxy]ethoxy]ethylamino]-1-carboxy-4-oxo-butyl]amino]-1-carboxy-4-oxo-butyl]amino]-20-oxo-icosanoic acid-Ala[Gln121,Leu168,Cys180]FGF21 (from UniProt Q9NSA1 29-209) (ligand)", "values": [
      {"measurement": "EC50 (0.1% HSA) (nM), pERK, HEK293/BKL cells", "result": 65.5, "unit": "nM"},
      {"measurement": "EC50 (nM), pERK, HEK293/BKL cells", "result": 10.3, "unit": "nM"}
    ]},
    {"substance": "S{Beta-181}-[2-[2-[[2-[2-[2-[[2-[2-[2-[[(4S)-4-carboxy-4-(11-carboxyundecanoyl-amino)butanoyl]amino]ethoxy]ethoxy]acetyl]amino]ethoxy]ethoxy]acetyl]amino]-ethylamino]-2-oxoethyl]-Ala[Gln121,Leu168,Cys181]FGF21 (from UniProt Q9NSA1 29-208) (ligand)", "values": [
      {"measurement": "EC50 (0.1% HSA) (nM), pERK, HEK293/BKL cells", "result": 137, "unit": "nM"},
      {"measurement": "EC50 (nM), pERK, HEK293/BKL cells", "result": 154, "unit": "nM"}
    ]},
    {"substance": "Ala[Gln121,Leu168,Cys172]FGF21 (from UniProt Q9NSA1 29-209) (ligand)", "values": [
      {"measurement": "EC50 (nM), pERK, HEK293/BKL cells", "result": 5, "unit": "nM"}
    ]}
  ]
}
